According to patent publication US20220396632A1 (VERSEAU THERAPEUTICS, published 2022):
No end group written: not given here.

Assays:
[1] = target: T1, Recombinant human PSGL-1(ECD)-hFc1 (R&D Systems, Cat. 3345-PS) (human, UniProt Q14242 42-305); test: ELISA, plate-bound target
T1 construct: Bought; Gln42-Val295 counted on AAC50061; also called PSGL-1-Fc; PSGL-1-hFc1 chimera; not shown: human IgG1 Fc, Pro100-Lys330
T1 sequence: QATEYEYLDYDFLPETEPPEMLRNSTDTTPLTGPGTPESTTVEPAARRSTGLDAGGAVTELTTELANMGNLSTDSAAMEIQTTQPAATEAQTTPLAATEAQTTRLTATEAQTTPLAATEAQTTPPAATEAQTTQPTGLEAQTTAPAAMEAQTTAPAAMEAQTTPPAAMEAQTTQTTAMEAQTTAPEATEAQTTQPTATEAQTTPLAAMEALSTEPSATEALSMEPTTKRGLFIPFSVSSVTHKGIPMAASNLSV
Method: (§1) Two ELISA methods were performed. One procedure detected mAb binding to its plate-immobilized target and the other measured the immobilized antibody's ability to capture biotinylated PSGL-1₄₂₋₆₂. […] The plate was incubated for 45 min at 37° C. Plates were washed 3 times with wash buffer (PBS containing 0.05% tween 20, pH 7.4) and a single concentration (2 to 500 nM) or serially diluted (0.002-100 nM) anti-PSGL-1 mAb was added (25 ul/well) in assay buffer into appropriate wells. The plate was incubated for 45 min at 37° C., washed 3 times, and an appropriate HRP-conjugated secondary antibody added (25 ul/well) (HRP goat anti-mouse or anti-human IgG). After 45 min incubation at 37° C., the plate was washed, and antibody bound to plate-immobilized target was determined at A450 nm using HRP substrate (3,3′,5,5′-etramethylbenzidine (TMB)). For each antibody, duplicate values were averaged and assay background was subtracted. Except for the following, ELISAs involving plate-immobilized mAb capturing of biotinylated PSGL-1₄₂₋₆₂ peptides was performed in the same manner as described above: 3 ug/mL/25 ul per well of mAb was coated directly onto microtiter plate wells; biotinylated unmodified or sulfotyrosine PSGL-1₄₂₋₆₂ was serially diluted (3 nM-3 uM) into appropriate wells, and antibody-bound peptide was detected using HRP-streptavidin (Jackson Immunoresearch, Cat. #016-030-084).

[2] = target: T2, Biotin PSGL-1(42-62) peptide, unmodified (human, C-terminal Lys-biotin); test: ELISA, plate-bound peptide
T2 construct: Residues 42-62 followed by GGGK-biotin; also called WT; wild-type
T2 peptide: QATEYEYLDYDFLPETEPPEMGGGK

[3] = target: T2, Biotin PSGL-1(42-62) peptide, unmodified; test: ELISA, plate-bound mAb captures biotin peptide
Method: as §1

[4] = target: T3, Biotin PSGL-1(42-62) E56A peptide (C-terminal Lys-biotin); test: alanine-scan ELISA, streptavidin-immobilized biotin peptide
T3 peptide: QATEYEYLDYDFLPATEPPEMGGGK

[5] = target: T4, Biotin PSGL-1(42-62) L54A peptide (C-terminal Lys-biotin); test: as above
T4 peptide: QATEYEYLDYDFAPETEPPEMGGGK

[6] = target: T5, Biotin PSGL-1(42-62) P55A peptide (C-terminal Lys-biotin); test: as above
T5 peptide: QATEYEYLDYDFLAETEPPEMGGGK

[7] = target: T6, Biotin PSGL-1(42-62) L49A peptide (C-terminal Lys-biotin); test: as above
T6 peptide: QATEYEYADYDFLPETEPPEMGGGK

[8] = target: T7, Biotin PSGL-1(290-310) peptide (human, N-terminal acetyl; C-terminal Lys-biotin); test: ELISA, streptavidin-immobilized biotin peptide [cont.]
T7 peptide: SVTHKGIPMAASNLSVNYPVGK
Method: (§2) A typical ELISA experiment involved binding of a single concentration or serially diluted mAb in assay buffer (3% BSA in PBS containing 0.05% Tween®20, pH 7.4) onto BSA blocked high binding microtiter plate half-wells (Corning Cat. #3690), which contained PSGL-1 protein or streptavidin-immobilized biotin peptide. After incubation for 45 min. at 37° C., the plate was washed 3 times with wash buffer (PBS containing 0.05% Tween®20, pH 7.4), and an appropriate HRP-conjugated secondary antibody added (25 ul/well) (HRP goat anti-mouse or anti-human IgG). After 45 min. incubation at 37° C., the plate was washed and antibody bound to plate-immobilized target was determined at A450 nm using HRP substrate (3,3′5,5′-tetramethylbenzidine (TMB)). For each antibody, duplicate values were averaged and assay background subtracted.

[9] = target: T8, Biotin PSGL-1(105-125) peptide (human, N-terminal acetyl; C-terminal Lys-biotin); test: as above
T8 peptide: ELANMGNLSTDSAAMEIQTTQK
Method: as §2

[10] = target: T9, Biotin PSGL-1(42-62) D50A peptide (C-terminal Lys-biotin); test: ELISA; against wild-type PSGL-1 42-62
T9 peptide: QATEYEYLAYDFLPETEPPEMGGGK

[11] = target: T9, Biotin PSGL-1(42-62) D50A peptide; test: alanine-scan ELISA, streptavidin-immobilized biotin peptide
[12] = target: T10, Biotin PSGL-1(42-62) F53A peptide (C-terminal Lys-biotin); test: as above
T10 peptide: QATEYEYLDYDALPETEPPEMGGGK

[13] = target: T11, PSGL-1(49-56)-Biotin (human, UniProt Q14242); test: ELISA, plate-immobilized biotin peptide
T11 construct: synthetic peptide; also called short PSGL-1 49-56 peptide with C-terminal biotin
T11 peptide (looked up): LDYDFLPE-biotin

[14] = target: T3, Biotin PSGL-1(42-62) E56A peptide; test: ELISA; against wild-type PSGL-1 42-62
[15] = target: T12, Biotin PSGL-1(42-62) Y46A peptide (C-terminal Lys-biotin); test: ELISA; against wild-type PSGL-1 42-62
T12 peptide: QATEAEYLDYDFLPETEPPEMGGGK

[16] = target: T13, Biotin PSGL-1(42-62) E45A peptide (C-terminal Lys-biotin); test: ELISA; against wild-type PSGL-1 42-62
T13 peptide: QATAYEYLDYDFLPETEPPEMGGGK

[17] = target: T4, Biotin PSGL-1(42-62) L54A peptide; test: ELISA; against wild-type PSGL-1 42-62

B1: 20I15 (antibody, V domains shown)
VH: EVKLVESGGGLVQPGGSLSLSCAASGFTFTDYYMSWVRQPPGKALEWLGFIRNKANGYTTEYSASVKGRFTISRDNSQSILYLQMNALRAEDSATYYCARTYLRRGYFDVWGTGTTVTVSS
VL: DIVLTQSPASLAVSLGQRATISCRASKSVSTSGYSYMHWFQQKPGQPPKLLIYLASNLESGVPARFSGSGSGTDFTLNIHPVEEEDAATYYCQHSRELPLTFGAGTKLELK
notes: From mouse immunisation; only variable domains given; also called 20115
B1 was tested, and the EC50 [1] was 0.26 nM, the “fold weaker binding than to sulfotyrosine PSGL-1 42-62” value [2] was greater than 50 fold and the EC50 [3] was roughly 3000 nM.

B2: 03D07 (antibody, IgG4, V domains shown)
VH: EVKLLESGGGLVQPGGSLRLSCAASGFTFSSYALSWVRQAPGKGLEWVSAISGSGGNTYYADSVKGRFTISRDNSKNTLYLQMNSLRAEDTAVYYCAKVVGATNYWGQGTLVTVSS
VL: DIVMTQTPLSLPVTLGQPASISCRSSQSLVYSDGHTYLSWFHQRPGQSPRRLIYKVSIRDSGVPDRFSGSGSGTDFTLKISRVEAEDVGVYYCMQRLQIPLTFGGGTKVEIK
In the case of B2, the EC50 [3] is reported as greater than 3000 nM.

B3: 18F02 (antibody, V domains shown)
VH: QVQLQQPGAELVKPGASVKLSCKASGYTFTSYWMHWVKQRPGQGLEWIGMIHPNSGRTNYNEKFKSKATLTVDKSSSTAYMQLSSLTSEDSAVYYCARSDYWGQGTTLTVSS
VL: DIVMTQAAFSNPVTLGTSASISCRSSKSLLHSDGITYLYWFLQRPGQSPQLLIYRMSNLASGVPDRFSGSGSGTDFTLRISRVEAEDVGVYYCAQMLEFPRTFGGGTKLEIK
notes: From mouse immunisation; only variable domains given
B3: binds [4]; binds [5]; binds [6]. B3: binds [7]; no binding (tested: 10 nM) [8]; no binding (tested: 10 nM) [9]. The EC50Ala/EC50 wt [10] was 35.6 fold.

B4: 43B6 (antibody, V domains shown)
VH: EVQLQQSGPDLVKPGALVKISCKASGYSFTAYYIHWVKQSHGKSLEWIGRVNPNTGGTSYNPKFKGKAILNVDKSSSTAYMELRSLTSEDSAVYYCARSGSPYYRYDDWGQGTTLTVSS
VL: ENVLTQSPAIMSASPGEKVTMTCRASSTVNSTYLHWFQQKSGASPKLWIYGSSNLASGVPARFSGSGSGTSYSLTISSVEAEDAATYYCQQYSGYPLTFGAGTTLELK
notes: Control anti-PSGL-1 mAb, recombinant; only variable domains given; also called 43B3
In the case of B4, the binding result [11] is reported as “binds”, the binding result [12] is reported as “binds” and the “EC50 (read off the curve)” value [13] is reported as roughly 0.4 nM. For the same binder, the EC50Ala/EC50 wt [14] was 22.3 fold.

B5: 18K07 (antibody, V domains shown)
VH: QIQLVQSGPELKKPGETVKISCEASGYTFTTYGMNWVKQAPGKGLKWMGWINTYSGVPTYADDFQGRFAFSVETSATTAYLQINNLKNEDAATYFCARSDDTYYGFAYWGQGTLVTVSA
VL: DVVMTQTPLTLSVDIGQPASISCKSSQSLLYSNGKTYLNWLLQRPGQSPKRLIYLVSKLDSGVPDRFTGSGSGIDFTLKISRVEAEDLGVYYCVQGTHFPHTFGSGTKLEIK
notes: as for B3
B5: no binding (tested: 10 nM) [8]; no binding (tested: 10 nM) [9].

B6: 16L15 (antibody, V domains shown)
VH: DVKLVESGGGLVKLGGSLKLSCAASGFTFSSYYMSWVRQTPEKRLEWVATISNGGGSTYYPDSVKDRFTISRDNAKNTLYLQMSSLNSEDTAVYYCAKPLYYSNPWFAYWGQGTLVTVSA
VL: DVLLTQTPLSLPVSLGDQASISCRSSQSIVHSNGNTYLEWYLQKPGQSPKLLIYKVSNRFSGVPDRFSGSGSGTDFTLKISRVEAEDLGVYYCFQGSHVPRTFGGGTKLEIK
notes: as for B3
With B6 the binding result [13] was “no binding (tested: Log M -7.7 (about 20 nM))”, the EC50Ala/EC50 wt [15] was 4.7 fold and the EC50Ala/EC50 wt [16] was 5.6 fold.

B7: 9F9 (antibody, V domains shown)
VH: EVQLVETGGGLVQPKGSLKLSCAASGFTFNTNAMNWVRQAPGKGLEWVARIRSKSNNYATYYADSVKDRFTISRDDTQSMIYLQMNNLKTEDTGMYYCVRGGSYWYFDVWGAGTTVTVSS
VL: DVLMTQTPLSLPVSLGDQASISCRSSQSIVNSNGNTYLEWYLQKPGQSPKLLIYKVSNRFSGVPDRFSGSGSGTDFTLKISRVEAEDLGVYYCFQGSHVPWTFGGGTKLEIK
notes: Control anti-PSGL-1 mAb, recombinant; only variable domains given; also called 9F6
B7 gave an EC50Ala/EC50 wt [17] of 14.4 fold.

B8: 10F01 (antibody, IgG4, V domains shown)
VH: EVQLVQSGGGLVQPGGSLRLSCAASGFTFSSYAMSWVRQAPGKGLEWVSALRGGDGGTYHADSVKGRFTISGDSSKNTLYLQMNSLRAEDTAVYYCARRMVGAAYAFDIWGQGTMVTVSS
VL: LPVLTQPHSVSESPGKTVTISCTRSSGSIADNFVQWYRQRPGSAPTTVIYEGDQRPSGVPGRFSGSIDSSSNSASLTISGLQTDDEADYYCQSFDSYNRRTHVVFGGGTKLTVL
For B8, the “fold weaker binding than to sulfotyrosine PSGL-1 42-62” value [2] was greater than 500 fold.
